According to US9181296B2, “Stabilized liquid enzyme compositions” (NOVOZYMES A/S, priority 2008, dated 2015):

Target: T1, Protease (Savinase 16.0 LEX) (Lederbergia lenta, UniProt P29600)
T1 construct: purchased Novozymes Savinase 16.0 LEX
T1 sequence (P29600 1-269): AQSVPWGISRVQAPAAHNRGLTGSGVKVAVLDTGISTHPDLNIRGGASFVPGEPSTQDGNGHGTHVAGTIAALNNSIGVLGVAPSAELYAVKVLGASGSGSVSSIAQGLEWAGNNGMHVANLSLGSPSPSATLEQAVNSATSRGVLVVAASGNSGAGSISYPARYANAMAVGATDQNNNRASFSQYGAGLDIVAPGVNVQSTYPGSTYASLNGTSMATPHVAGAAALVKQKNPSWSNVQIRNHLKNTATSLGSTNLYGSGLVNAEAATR
Assay: Storage stability of protease in liquid detergent N with stabilizer (Example 3)
Assay type: biochemical
Settings: 1 week 40° C.
Method: Peptide aldehydes Z-GAF-H, Z-GAL-H and Z-GAY-H were produced by peptide synthesis, all with a purity >80%. The peptide aldehydes were dissolved in DMSO to a concentration of 10 mg/ml before use.
The following detergent N with enzymes was prepared:
The following detergents with stabilizer according to the invention were prepared and normalized to 100 g of detergent:
The detergents were placed in closed glasses at 40° C. Residual activity of protease was measured (by comparison to a reference stored at −18° C.) after 1 week, using standard enzyme analytical methods (protease measured by hydrolysis of N,N-dimethylcasein at 40° C., pH 8.3).

Substance: Z-GAY-H
- Molar surplus of inhibitor relative to protease needed to reach the same residual activities as the other peptide aldehydes (compared with Z-GAL-H and Z-GAF-H in detergent N): approximately half
- Efficiency for stabilizing the protease (in words) (detergent N): most efficient
